Test results taken from US20050124794A1, “Cell surface tropomyosin as a target of angiogenesis inhibition” (priority 2002, published 2005).
Several values for one entry are separate records, joined by “and”; a condition that tells them apart may be missing. Equal entries are not always repeated. Entries after “also recorded” stand apart in the source; their conditions may differ.

How the values were obtained:
[1] = tested on: bFGF-induced angiogenesis in the chick chorioallantoic membrane; assay: Chick chorioallantoic membrane (CAM) assay; format: in vivo
Procedure: This assay is performed essentially as described by Nguyen et al (Microvascular Res. 47:31-40 (1994)). A mesh containing either angiogenic factors (bFGF) or tumor cells plus inhibitors is placed onto the CAM of an 8-day old chick embryo and the CAM observed for 3-9 days after implantation of the sample. Angiogenesis is quantitated by determining the percentage of squares in the mesh which contain blood vessels.
Chick chorioallantoic membrane assay. […] Three day-old fertilized White Leghorn chicken eggs were cracked in sterile Petri dishes. Embryos were cultured at 37° C., under 4% CO2, until day 7, at which time a 3.0 mm filter disc containing either 30 ng bFGF (positive control), 30 ng bFGF and 10 μg HKa or 30 ng bFGF, 10 μg HKa and 20 μg of mAb TM-311 was placed on the CAM. Each experimental condition was tested in at least 6 eggs. On day 10, embryos were photographed using a SPOT digital camera Angiogenesis was quantitated by counting the number of neovessels in direct contact with the filter disc.

proliferating ECs [2] = assay: Assessment of EC apoptosis (DAPI, TUNEL, DNA cleavage); format: cell-based, human
Procedure: Assessment of EC apoptosis. The effect of TM-311 on HKa- or HKa D5-induced EC apoptosis was determined using several methods. First, staining of control or HKa exposed ECs using 4′, 6′-diamidino-2-phenylindole dihydrochloride (DAPI) (Molecular Probes, Eugene Oreg.) was employed to highlight apoptosis-associated changes in nuclear morphology. Second, apoptosis was assessed by TUNEL staining, using the Apo-Direct kit (Pharmingen, San Diego, Calif.). Cells were counterstained with propidium iodide to define all nuclei, and the percentage of apoptotic CUNEL positive) nuclei determined by manual counting. Finally, to assess endothelial apoptosis by endonucleolytic cleavage of DNA, EC DNA was isolated and separated using 0.8% agarose gel electrophoresis. Gels were stained with ethidium bromide, and DNA visualized using UV light.

proliferating ECs [3] = assay: Binding of biotin-HKa to ECs; design: species or system human; details: Zn2+-dependent (10 μM Zn2+), nonlinear regression, read-out: Kd of specific binding of HKa to proliferating ECs
Procedure: Binding of HKa to ECs and purified Tpm. Binding of HKa to ECs was measured as described by Hasan, A A et al. (1995) J. Biol. Chem. 270:19256-19261. Briefly, 3×10^4 HLVEC/ml were cultured in 96-well microplates, then washed and incubated with increasing concentrations of biotin-HKa for two hours, at 4° C. After brief washing, cells were incubated sequentially with a 1:750 dilution of streptavidin peroxidase and the peroxidase substrate, turbo-TMB (Pierce), prior to measurement of A490. Absolute amounts of bound HKa were determined by comparison of A490 values with a standard curve prepared using known amounts of biotin-HKa Binding was measured in the presence (to determine total binding) and absence (to determine non-specific binding) of 10 μM Zn^2+, and specific binding defined as the difference between total and non-specific binding (van Iwaarden, F et al. (1988) J. Biol. Chem. 263:4698-4703). The dissociation constant (Kd) was determined by fitting the saturation isotherm by nonlinear regression using the Prism software program (GraphPad, San Diego, Calif.).
In selected experiments, the ability of mAb TM-311 to inhibit the binding of HKa to cells was assessed by incubating biotin-HKa with ECs in the presence of increasing concentrations of antibody. […]

chicken gizzard Tpm [4] = target: T1, chicken gizzard Tpm (Gallus gallus, UniProt P19352); assay: Binding to immobilized Tpm in a 96 well plate (biotin-HKa competition or direct binding); details: plate coated with 200 ng chicken gizzard Tpm, 10 μM ZnCl2
T1 construct: purchased Sigma; host or cells: chicken gizzard (tissue-derived, as the name says)
Procedure: Plates are coated at room temperature with chicken gizzard Tpm (Sigma) in Tris buffer-saline (TBS) (200 ng/well). After incubation for 2 hours, wells are washed with TBS, then 1% BSA/TBS/Tween-20 is added to each well and incubate at 37° C. for two hours. HKa (Enzyme Laboratories) that had been previously biotinylated with EZ-Link (Pierce) according to the manufacturers instructions, is added to the plate at a concentration of 10 nM together with ZnCl2 (10 μM) and the appropriate concentration of the protein, domain or peptide competitor. The plates are incubated at room temperature and then washed with TBS/Tween-20. Avidin-HRP is added, incubated for 20 minutes at room temperature, washed with TBS/Tween-20 and the chromogenic substrate is added. The reaction is stopped with sulfuric acid and the plate read at 490 nm.
The IC50 for the displacement of biotinylated-HKa for the peptides shown in Table 5 was determined as follows: 10 nM biotin-HKa is added to a 96 well plate previously coated with 200 ng of chicken gizzard Tpm in the presence of 10 μM ZnCl2. Increasing amounts of the peptides are added to the wells. The remaining biotin-HKa bound to Tpm was detected using avidin-HRP and a chromogenic substrate. A Kd was determined by non-linear regression analysis of the empirical data. The effect on the Matrigel Plug assay was determined as follows: Matrigel (0.5 mL) containing 400 ng/ml of bFGF, 50 μg/ml heparin with or without the peptide (300 μM) or saline buffer are injected in the flanks of a mouse. After five days, the plugs are removed and the plugs scanned.
The N-terminus of the pentapeptide HHPHG has been derivatized (capped) in an attempt to increase the pentapeptides' affinity to Tpm by increasing productive molecular contacts (or interactions). […] The IC50 for the displacement of biotinylated-HKa for the capped peptides shown in the table was determined as follows: 10 nM biotin-HKa was added to a 96 well plate previously coated with 200 ng of chicken gizzard Tpm in the presence of 10 μM ZnCl2. Increasing amounts of the peptides were added to the wells. The remaining biotin-HKa bound to Tpm was detected using avidin-HRP and a chromogenic substrate. A Kd was determined by non-linear regression analysis of the empirical data

chicken gizzard Tpm [5] = target: T1, chicken gizzard Tpm; assay: Binding of HKa to purified Tpm immobilized in 96 well microplates; details: biotin-HKa, Zn2+-dependent (10 μM Zn2+), nonlinear regression; read-out: Kd of binding of HKa to purified Tpm
Procedure: To measure the binding of HKa to purified Tpm, 96 well microplates were coated with 20 μg/ml of chicken gizzard Tpm (Sigma), or bovine serum albumin (BSA), as a control. Wells were then blocked by incubation with phosphate buffered saline containing 5% nonfat milk, and incubated with increasing concentrations of HKa (0.01-20 nM) for 2 hours. Specifically-bound HKa was quantitated as described for cell binding assays (van Iwaarden et al., supra, and by assessing the ability of a 100-fold molar excess of unlabeled HKa to compete with biotin-HKa for binding.
In selected experiments, the ability of mAb TM-311 and recombinant HKa D5 to inhibit the binding of biotin-HKa to Tpm was assessed. These studies allowed determination of the Kd for binding of HKa D5 to Tpm using the equation: Kd (D5)=IC50/(1+[HKa]/Kd (HKa)) where IC50 is the concentration of HKa D5 that inhibited HKa binding by 50%, and Kd(HKa) is the Kd for binding of HKa to Tpm.

HUVEC = assay: EC proliferation assay (growth factor-induced); format: cell-based, human; details: bFGF 10 ng/ml; 20 nM HKa, 60 nM HKa domain 5
Procedure: EC proliferation assays. The effect of HKa on ECs in the absence or presence of mAb TM-311 was initially assessed using a proliferation assay, as described in Zhang et al., supra. Relative numbers of cells remaining in each well of a 96 well microplate after incubation for 48 hours in the absence or presence of HKa were determined using the Aqueous® cell proliferation assay (Promega, Madison, Wis.). Results are presented as the percent inhibition of bFGF-induced EC proliferation, which essentially reflects the extent of HKa-induced EC apoptosis. Though bFGF was used as the EC mitogen in most studies of the studies described herein, identical results were obtained using VEGF.

T1 sequence (P19352 1-284 isoform P19352-2): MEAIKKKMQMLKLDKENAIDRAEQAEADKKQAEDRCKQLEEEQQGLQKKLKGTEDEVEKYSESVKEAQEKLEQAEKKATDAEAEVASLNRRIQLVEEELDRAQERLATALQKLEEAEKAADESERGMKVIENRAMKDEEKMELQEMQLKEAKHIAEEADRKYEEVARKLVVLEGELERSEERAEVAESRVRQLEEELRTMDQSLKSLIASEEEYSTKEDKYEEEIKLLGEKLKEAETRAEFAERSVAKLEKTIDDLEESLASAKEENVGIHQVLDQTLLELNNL
T1 sequence (P04268 1-284 isoform P04268-2 F73S/I172L/T199L/N203E/L204A partner): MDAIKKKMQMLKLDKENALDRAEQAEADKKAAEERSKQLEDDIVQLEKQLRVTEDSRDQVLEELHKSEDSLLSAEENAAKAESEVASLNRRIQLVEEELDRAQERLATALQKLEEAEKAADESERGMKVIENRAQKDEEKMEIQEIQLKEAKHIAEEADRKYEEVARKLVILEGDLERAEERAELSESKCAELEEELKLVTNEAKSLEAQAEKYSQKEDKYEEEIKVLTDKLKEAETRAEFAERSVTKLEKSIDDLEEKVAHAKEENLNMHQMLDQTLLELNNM

B1: HKa: Two-chain high molecular weight kininogen, purchased from Enzyme Research Laboratories (protein)
chain 1: QESQSEEIDCNDKDLFKAVDAALKKYNSQNQSNNQFVLYRITEATKTVGSDTFYSFKYEIKEGDCPVQSGKTWQDCEYKDAAKAATGECTATVGKRSSTKFSVATQTCQITPAEGPVVTAQYDCLGCVHPISTQSPDLEPILRHGIQYFNNNTQHSSLFMLNEVKRAQRQVVAGLNFRITYSIVQTNCSKENFLFLTPDCKSLWNGDTGECTDNAYIDIQLRIASFSQNCDIYPGKDFVQPPTKICVGCPRDIPTNSPELEETLTHTITKLNAENNATFYFKIDNVKKARVQVVAGKKYFIDFVARETTCSKESNEELTESCETKKLGQSLDCNAEVYVVPWEKKIYPTVNCQPLGMISLMK
chain 2: SSRIGEIKEETTVSPPHTSMAPAQDEERDSGKEQGHTRRHDWGHEKQRKHNLGHGHKHERDQGHGHQRGHGLGHGHEQQHGLGHGHKFKLDDDLEHQGGHVLDHGHKHKHGHGHGKHKNKGKKNGKHNGWKTEHLASSSEDSTTPSAQTQEKTEGPTPIPSLAKPGVTVTFSDFQDSDLIATMMPPISPAPIQSDDDWIPDIQTDPNGLSFNPISDFPDTTSPKCPGRPWKSVSEINPTTQMKESYYFDLTDGLS
[1]; 30 ng bFGF, 10 μg HKa
  inhibition of angiogenesis induced by bFGF-containing filter discs, vessel counts: about 85%
[1]; in vivo
  inhibition of bFGF-induced angiogenesis in the CAM (in words): inhibited basic FGF-induced angiogenesis; also recorded: antiangiogenic activity
Proliferating ECs [2]
  induction of EC apoptosis (in words): induction of EC apoptosis
Proliferating ECs [3]
  Kd: ~2.5 nM and ~2.6 nM
Chicken gizzard Tpm [4]
  Kd: ~1 nM
Chicken gizzard Tpm [5]
  Kd: ~2.6 nM and ~2.5 nM
HUVEC
  inhibition of bFGF-induced EC proliferation (in words): inhibition
